Laboratory results published in the DeepSol protein solubility set.

Assay: soluble on expression in E. coli; label from the status in PepcDB or PDB records

Q: For “MAHHHHHHMHRNIHGGTASATIANSALVSPPPHTTIPPLPAGMDPTYYALSLLRRRRLEECIAVSTQYLAVFNEKMRLTSSGTQKQADGVDEPLWFIQTRALITQDWFDELDVDNDGVDEVLLDGEQNISSTAHRPGTSLQRKDAPTGTTIPTGMAQRQGTARPISSRYGYVRPGTQSRNRPGTMSIRPITSRMMRIGTASLQAVPGGPHIDVRKLNLEKYGRTKPIVARILCDFLLHVEHRPRMVLELGAIALEQQPKDWWWMSRMGQAYYRLGLLREAERMFKAALTIQENVADVMRLARVFTKMDQPLKALDLLSEASKKNPMDHHLLLHMARLYDQLQDAEKSCQLYRRVLQLDSSNMESIACIAAYMFYEKKQPEIALRLYRRLLQMGVQTTELWNNLGLCCFYSSQYDIALSCLQRAVAISTEDETLADVWYNIGHIGIGTGDLGLAHRAFKVALGANPRHAEALNNLAVLNLNIGQVDQAMNDLAMAIEVSPEQHEPLYNFALLAFKAGNFEKSYKLLTQALEACPDHPESALLQATLRKSLATL”, which “soluble on expression in E. coli” value is on record?
A: Its value is “not soluble”.

Q: For “MSLGQHFLKDLKVAQDIADTVDTFPELPVLEVGPGMGVLTQFLVKKDRLVKVVEVDYESVAYLREAYPSLEDHIIEDDFLKMNLHRLFDGKPFVLTGNYPYNISSQIFFKMLENKDIIPCCTGMIQKEVAERIAAGPGSKTYGILSVLIQAWYKVEYLFTVSEHVFNPPPKVKSAVIRMTRNDTKELGCDEKLFKQVVKTTFNQRRKTLRNSIKPILGKDCPLTEDALFNKRPEQLSVEEFISLTNQVEEALKTATASEGHHHHHH”, which “soluble on expression in E. coli” value is on record?
A: Its value is “soluble”.

Q: With “MTADLPDEIDETPLDGEYAHDSSPTLLYAIKQVELAIRSHMDALLRPMGITALQYTALTVLRRRDGLSSAELARNSFVTAQTMGEMLSALERRGLVTRRVDPANRRRMLTSLTADALDLLAEYDTSICGLEEQMLADMSVRQRDAFRGYLGRCRIALAETPAH” as the sequence, how does the “soluble on expression in E. coli” value read?
A: Its value is “not soluble”.

Q: For “MACLSPSQLQKFQQDGFLVLEGFLSAEECVAMQQRIGEIVAEMDVPLHCRTEFSTQEEEQLRAQGSTDYFLSSGDKIRFFFEKGVFDEKGNFLVPPEKSINKIGHALHAHDPVFKSITHSFKVQTLARSLGLQMPVVVQSMYIFKQPHFGGEVSPHQDASFLYTEPLGRVLGVWIAVEDATLENGCLWFIPGSHTSGVSRRMVRAPVGSAPGTSFLGSEPARDNSLFVPTPVQRGALVLIHGEVVHKSKQNLSDRSRQAYTFHLMEASGTTWSPENWLQPTAELPFPQLYT”, which “soluble on expression in E. coli” value is on record?
A: The value was “soluble”.

Q: With “MGMLDVSLHKITQKSQSLLHRTADRHLRLAVTGLSGAGKTAFITGLVNQLLNSGAVSTVSHSRQNGLPLWQVSREQRLLGVKRAMQPDLEIASFDYQGAMLALTSNPPTWPESTRTISELRLAIKYRPEKGLLAKFADAATLYLDIVDYPGEWLLDLPMLRQSYIEWCTTQQQRIAVLKSSPLYAGFETSLNALNLAAMADESELKRLADQYQQLLHDLVHVQGYYQAQPGRMLLPGEWQGAPLLAFFPLLSVTNAQWSNLKQSDKHSAFHVLEKRYQEYVAKVVKPFYKQHFAGFDRQVVLVDCFSALNRGKSQFEDMGAALNAIMESFQYGQSSYLRRLFAPRIDRLLFAASKVDHVTRDQQSHVLSLLTDMLKHSQHFAGFEGCKVETMAISAIKATRHGMVTTQEGDVEVVQGTGLNGQALTLFPGEVPTRLPEPDFWREQGFNFIGFAPPDNTNVDPSSVHFDHIRLDHLLQYLVGDKLE” as the sequence, how does the “soluble on expression in E. coli” value read?
A: The value was “not soluble”.

Q: For “MSQKLKVVTIGGGSSYTPELLEGFIKRYHELPVSELWLVDVEGGKPKLDIIFDLCQRMIDNAGVPMKLYKTLDRREALKDADFVTTQLRVGQLPARELDERIPLSHGYLGQETNGAGGLFKGLRTIPVIFDIVKDVEELCPNAWVINFTNPAGMVTEAVYRHTGFKRFIGVCNIPIGMKMFIRDVLMLKDSDDLSIDLFGLNHMVFIKDVLINGKSRFAELLDGVASGQLKASSVKNIFDLPFSEGLIRSLNLLPCSYLLYYFKQKEMLAIEMGEYYKGGARAQVVQKVEKQLFELYKNPELKVKPKELEQRGGAYYSDAACEVINAIYNDKQAEHYVNIPHHGQIDNIPADWAVEMTCKLGRDGATPHPRITHFDDKVMGLIHTIKGFEIAASNAALSGEFNDVLLALNLSPLVHSDRDAELLAREMILAHEKWLPNFADCIAELKKAH”, which “soluble on expression in E. coli” value is on record?
A: The value was “soluble”.

Q: With “MGSDKIHHHHHHMFSQTIFFGMKQSARGVSVAFSTLQEASMHKRVLIQAASALLALQFMAVPVFAAGSSGGGSDQTVTQCKKGEVWDKKKKKCVAPQEGMLDDDSIYDAGHALAMAGRYDEAISVLTLAANKQDPRILNYLGYSHRHSGRVTVGLGYYEEALRIDPNYTLVREYLGEAHLQIGDLAGAQQQLMEIEKRTGKGSREYGMLSEQIDHFMRS” as the sequence, how does the “soluble on expression in E. coli” value read?
A: Its value is “not soluble”.

Q: Which “soluble on expression in E. coli” value does the source give for “MALSHSVKERTISENSLIILLQGLQGQITTVDLRDESVARGRIDNVDAFMNIRLANVTYTDRWGHQVELDDLFVTGRNVRYVHIPDGVDITATIEQQLQIIHRVRNFGGKGQGRREFPSKRP” here?
A: Its value is “soluble”.

Q: Which “soluble on expression in E. coli” value does the source give for “MGSDKIHHHHHHMQLKQSIYFHSPIFLQNILTTIYGRVLYQERYGPVYQKRLQELKEKERFQTNAQAEQLARLNQFLLFCQTYSPYYQELFEQHRITLPLETLDELKQIPILSKEILRTRNADVHAKIRAPILGKTGGTTGKSIQVHYTKEDMQIRMAHLDYFKWTHGIERGMRRASFTGQTLAAESQKAPVYWRMNKAINQMLFTIKNINPQTAALYIEQLNRFNPESIDGLPSGMIEVARHAKKYNIPCTFRPKAIFPTAEMMTAAERQLIEEVFHAPIFDQYASSEGAPIVAECRYGKKHLHYEMGIIEVEEDGQILVTSFDTHGTPLVRYRVGDRMTLSEATCQCGHAGPVIASIDGRGRSFIQLKDGHRIFEGELAGIVRAFPNCIERVQYIQSDKEEIVMLYVPDERCFKEEHEKELYFVLKRLFGGQMEVLLRAVPEIPKEISGKTLLIKQLLLEKS” here?
A: Its value is “not soluble”.

Q: With “TLWPREVEGGQGKPSHGCRAASKARLEAKPANSPFPSHPSLAHITQFRMMVSLGHLAKGASLDDLIDSCIQSFDADGNLCRSNQLLQVMLTMHRIVISSAELLQKVITLYKDALAKNSPGLCLKICYFVRYWITEFWVMFKMDASLTDTMEEFQELVKAKGEELHCRLIDTTQINARDWSRKLTQRIKSNTSKKRKVSLLFDHLEPEELSEHLTYLEFKSFRRISFSDYQNYLVNSCVKENPTMERSIALCNGISQWVQLMVLSRPTPQLRAEVFIKFIQVAQKLHQLQNFNTLMAVIGGLCHSSISRLKETSSHVPHEINKVLGEMTELLSSSRNYDNYRRAYGECTDFKIPILGVHLKDLISLYEAMPDYLEDGKVNVHKLLALYNHISELVQLQEVAPPLEANKDLVHLLTLSLDLYYTEDEIYELSYAREPRNHRAPPLTPSKPPVVVDWASGVSPKPDPKTISKHVQRMVDSVFKNYDHDQDGYISQEEFEKIAASFPFSFCVMDKDREGLISRDEITAYFMRASSIYSKLGLGFPHNFQETTYLKPTFCDNCAGFLWGVIKQGYRCKDCGMNCHKQCKDLVVFECKKRAKNPVAPTENNTSVGPVSNLCSLGAKDLLHAPEEGPFTFPNGEAVEHGEESKDRTIMLMGVSSQKISLRLKRAVAHKATQTESQPWIGSEGPSGPFVLSSPRKTAQDTLYVLPSPTSPCPSPVLVRKRAFVKWENKDSLIKSKEELRHLRLPTYQELEQEINTLKADNDALKIQLKYAQKKIESLQLEKSNHVLAQMEQGDCS” as the sequence, how does the “soluble on expression in E. coli” value read?
A: Its value is “soluble”.

Q: Which “soluble on expression in E. coli” value does the source give for “MSLTLPDTDQLVAGIQSWIQCESPSNSPAGVTAMAHLAAEYARAVGLAVEIRPLNAEVGPLVHATNRAAGDTRPGVLILGHIDTVHPIGTLQDNPCRIDGDRLYGPGSYDMKAGIYLALSALRGLPSPDATALPVDFLLVPDEETGSHASREHIEHYAARAKYALVCEPARPNGGKCVTARKGTGMLRLNVKGRPAHAGMQHEKGRSAIREMAHQVLELESMTDYERGITVSVGTIAGGTVTNTVPAQCRCVVDFRVPDMGATEDVLRRMRNLCSVGPDMELDIDVELNRPPMVKTEAASALLQLAQDFAAQAGFALEDAPMTGGGSDANFTSAMGVPTLDGLGADGDGAHTLNEYILVSTLAARMRFWELLLKELHEGHHHHHH” here?
A: The value was “soluble”.

Q: For “MGSDKIHHHHHHLITVTDLSLQIGSRTLYSDVNLKFTPGNCYGIIGANGAGKSTFLKLLEGKMEPTTGSISMGPNERMSSLNQDHFAFEDFSVMETVIQGHQKLYQVMKERDALYAKADFSEEDGVKAAELETEFAELDGWNAEADAAQLLQSMSIPEDMHQKQMSELAESDKVKVLLAQALFGNPDTLLLDEPTNGLDVHTTAWLENFLADYENIVLVVSHDRHFLNQVCTQMCDVDRGQIKLYVGNYDFWYESSKLATELARQQNAKKEEQIKQLQEFIARFSANASKSKQATSRKKQLDKISLDDIKPSSRKYPYIKFEMNRDLGNDLLRVDNVSYKSGDEQLLDNVSFIIRPGDKVAFLSRNTRATTALMEIIAGRLEPDSGTVTWGQTTSFNYMSRDLNANFDNDELTILDWLRQYADKEHDDNTFLRGFLGRMLFSGDEINKQIKVLSGGEKVRCQLSRMMLEAANVLVMDDPTNHLDLESITALNEAMENYPGSILFTSHDHEFIQTIANHIIEVGPKGVVARADISYDDFLAHPTVQEQVAKIY”, which “soluble on expression in E. coli” value is on record?
A: Its value is “not soluble”.

Q: With “GPGSMVERTADQRIRTTEWEEVQYKFGNRVGKYATNEVELLAQKIADNNLNAPLKAYDPHEEKVMDKVERGGYDTGRAEEEGGPAFDDALPDDDDEALAAFRRKRLAELQRQKEVERFGVLRHVSGADYMTEVTEASSTNWVVAVLIKPGHDNCEALLSVMRVAAQRHRDVKFLSMVSTEAIKNFPDRHLPCVLLYRDKKLENQLTEVASWKGKQNRLSLESVERVLHRYGVIRNTDYDHDDDDDDA” as the sequence, how does the “soluble on expression in E. coli” value read?
A: Its value is “not soluble”.

Q: Which “soluble on expression in E. coli” value does the source give for “MGSDKIHHHHHHMTRRAWTLLDGGMGRELKRIGAPFRQPEWSALALFEAPEYVTQVHRAFIAAGARVITTNSYAVVPFHIGEERFARSGRALAELSGRLARGAADEAGASVQVAGSLPPALGSYRPDLFDPARSQAIHRELICGLTPHVDFWLAETQSSLAEARAVHAALDGDGKPLWLSFTLLDPDTEHAVPLLRSGESVQQAVLLALELGASALLFNCSQPESMGAALRSARQVLKQEARELALGVYANAFPPVREDAQANDTLLDIRADLGPEAYLQWAQQWVEEGADIVGGCCGIGPEHIARLDEHLQACKQGME” here?
A: The value was “not soluble”.

Q: For “MSLQNKTVFVGISGGVDSAVSALLLKQQYREVIGIFMECWDNTLNNDQLGHRAFNEHKSGCSSKEDFREAQAIAQLLGIKLIKQNLVEPY”, which “soluble on expression in E. coli” value is on record?
A: Its value is “soluble”.

Q: For “MGSDKIHHHHHHMGYAYLRGLRNARLQNNNDETSTVFRSCSVPTFQKMRSAYGRRVVKDVFAPNGGVFINRLVEYVTGQGHDFENMLAQKLAISEPLSSSAQVLPVYEHSLVFGLAERVCNDTSIGYALAYQCTLRDAGLVGYAVSASETAGEALYTLSRLSNVFEVVSASASGGLVDLRWDFGSQGKLDLRHWSEFIATLLVRSLKTLCTGAVAPVGVEFTHTAPSSSEQAVLAFGVKPTYRGRLNRLTFREQDLRQPLRSADAGLLRLLLEHAELLRRRPDRNSNDLSITVERLIMDGMSEGDASLAQVAESLDMSQRTLSRKLASEGTSFFAILEGVRKSLALRYLQQNEKSLSEISFALGYSSLSSFNDAFRRWYDQSPGSYRSDALKEAAVKS”, which “soluble on expression in E. coli” value is on record?
A: Its value is “not soluble”.

Q: For “MAHHHHHHMVENKSKVKDISLAPFGKMQMEISENEMPGLMRIREEYGKDQPLKNAKITGCLHMTVECALLIETLQKLGAQIRWCSCNIYSTADYAAAAVSTLENVTVFAWKNETLEEYWWCVESALTWGDGDDNGPDMIVDDGGDATLLVHKGVEYEKLYEEKNILPDPEKAKNEEERCFLTLLKNSILKNPKKWTNIAKKIIGVSEETTTGVLRLKKMDKQNELLFTAINVNDAVTKQKYDNVYGCRHSLPDGLMRATDFLISGKIVVICGYGDVGKGCASSMKGLGARVYITEIDPICAIQAVMEGFNVVTLDEIVDKGDFFITCTGNVDVIKLEHLLKMKNNAVVGNIGHFDDEIQVNELFNYKGIHIENVKPQVDRITLPNGNKIIVLARGRLLNLGCATGHPAFVMSFSFCNQTFAQLDLWQNKDTNKYENKVYLLPKHLDEKVALYHLKKLNASLTELDDNQCQFLGVNKSGPFKSNEYRY”, which “soluble on expression in E. coli” value is on record?
A: The value was “soluble”.
